Assay results as given in patent publication US20100240040A1, “METHOD FOR SCREENING FOR SELECTIVE MODULATOR OF THE NF-KB PATHWAY ACTIVATION” (INSTITUT PASTEUR, priority 2007, published 2010).

Legend:
Biot-CC2-LZ (murine) [1] = test: HTRF, 50 nM each, in the presence of Mono-Ub (1 µM)
Biot-CC2-LZ (murine) [2] = test: HTRF, 50 nM each, in the presence of Poly-Ub (12.5 µM)
Biot-CC2-LZ (murine) [3] = test: HTRF, 50 nM each, streptavidin-EuK 2 nM, anti-His-XL665 7 nM
Biot-CC2-LZ (murine) [4] = test: HTRF, 50 nM each, in the presence of GST-Ub4 (12.5 µM), which induces the CC2-LZ dimer

FRET (ΔF %) (Biot-CC2-LZ (murine) [1]): < 0 ΔF %
FRET (ΔF %) (Biot-CC2-LZ (murine) [2]): < 0 ΔF %
FRET (ΔF %) (Biot-CC2-LZ (murine) [3]): < 0 ΔF %
FRET (ΔF %) (Biot-CC2-LZ (murine) [4]): 373 ΔF %
B1: His-CC2-LZ (protein)
chain: MGSHHHHHHSSGLVPRGSHMASLEDLRQQLQQAEEALVAKQELIDKLKEEAEQHKIVMETVPVLKAQADIYKADFQAERHAREKLVEKKEYLQEQLEQLQREFNKL
